Source: PMC10247859, “Replisome-cohesin interactions provided by the Tof1-Csm3 and Mrc1 cohesion establishment factors” (Chromosoma, 2023)

Key:
Chl1 = biological target: T1, Chl1 (S. cerevisiae (budding yeast), UniProt P22516 1-861); experiment: cross-linking; CLMS with sulfo-SDA; cohesin, Tof1-Csm3 and Chl1 with or without Mrc1 at 300-350 nM, 30 °C 5 min, cross-linker 2 h at 4 °C, UV 365 nm; LC-MS/MS, 1% FDR at residue-pair level; two samples merged; conditions: both partners purified
T1 construct: Chl1, budding yeast; codon-optimized ectopic copy; also called Flag-tagged Chl1; Chl1 helicase
T1 sequence (looked up): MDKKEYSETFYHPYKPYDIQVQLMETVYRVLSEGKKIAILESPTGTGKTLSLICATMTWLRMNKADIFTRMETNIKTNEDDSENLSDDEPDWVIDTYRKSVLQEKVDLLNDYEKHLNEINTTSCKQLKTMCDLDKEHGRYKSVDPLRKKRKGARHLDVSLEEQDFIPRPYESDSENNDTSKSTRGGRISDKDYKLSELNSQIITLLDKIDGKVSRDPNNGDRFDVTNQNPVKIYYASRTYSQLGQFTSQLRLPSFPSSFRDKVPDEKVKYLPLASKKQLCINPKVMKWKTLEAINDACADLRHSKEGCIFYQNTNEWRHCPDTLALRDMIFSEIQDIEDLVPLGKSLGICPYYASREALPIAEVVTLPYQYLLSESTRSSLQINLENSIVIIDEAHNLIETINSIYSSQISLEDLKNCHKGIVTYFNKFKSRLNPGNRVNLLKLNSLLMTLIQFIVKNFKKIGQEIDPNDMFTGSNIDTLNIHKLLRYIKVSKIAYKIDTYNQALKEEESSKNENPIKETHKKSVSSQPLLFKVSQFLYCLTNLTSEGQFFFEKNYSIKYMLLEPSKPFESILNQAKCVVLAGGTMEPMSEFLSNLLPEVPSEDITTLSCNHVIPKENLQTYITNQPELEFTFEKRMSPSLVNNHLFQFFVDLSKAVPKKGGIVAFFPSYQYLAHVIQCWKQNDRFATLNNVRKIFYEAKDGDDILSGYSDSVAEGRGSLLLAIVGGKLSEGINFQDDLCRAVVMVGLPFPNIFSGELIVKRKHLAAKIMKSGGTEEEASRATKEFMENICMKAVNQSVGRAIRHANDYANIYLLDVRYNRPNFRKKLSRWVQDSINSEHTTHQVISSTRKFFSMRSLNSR

Tof1 = biological target: T2, Tof1 (S. cerevisiae (budding yeast), UniProt P53840 1-1238); experiment: as above; conditions: both partners purified
T2 construct: Tof1, budding yeast; the Tof1 chain of m2; Stood in the cross-linking sample as a chain of the Tof1-Csm3 complex; source: purified as part of Tof1-Csm3, as previously described (Yeeles et al. 2017)
T2 sequence (looked up): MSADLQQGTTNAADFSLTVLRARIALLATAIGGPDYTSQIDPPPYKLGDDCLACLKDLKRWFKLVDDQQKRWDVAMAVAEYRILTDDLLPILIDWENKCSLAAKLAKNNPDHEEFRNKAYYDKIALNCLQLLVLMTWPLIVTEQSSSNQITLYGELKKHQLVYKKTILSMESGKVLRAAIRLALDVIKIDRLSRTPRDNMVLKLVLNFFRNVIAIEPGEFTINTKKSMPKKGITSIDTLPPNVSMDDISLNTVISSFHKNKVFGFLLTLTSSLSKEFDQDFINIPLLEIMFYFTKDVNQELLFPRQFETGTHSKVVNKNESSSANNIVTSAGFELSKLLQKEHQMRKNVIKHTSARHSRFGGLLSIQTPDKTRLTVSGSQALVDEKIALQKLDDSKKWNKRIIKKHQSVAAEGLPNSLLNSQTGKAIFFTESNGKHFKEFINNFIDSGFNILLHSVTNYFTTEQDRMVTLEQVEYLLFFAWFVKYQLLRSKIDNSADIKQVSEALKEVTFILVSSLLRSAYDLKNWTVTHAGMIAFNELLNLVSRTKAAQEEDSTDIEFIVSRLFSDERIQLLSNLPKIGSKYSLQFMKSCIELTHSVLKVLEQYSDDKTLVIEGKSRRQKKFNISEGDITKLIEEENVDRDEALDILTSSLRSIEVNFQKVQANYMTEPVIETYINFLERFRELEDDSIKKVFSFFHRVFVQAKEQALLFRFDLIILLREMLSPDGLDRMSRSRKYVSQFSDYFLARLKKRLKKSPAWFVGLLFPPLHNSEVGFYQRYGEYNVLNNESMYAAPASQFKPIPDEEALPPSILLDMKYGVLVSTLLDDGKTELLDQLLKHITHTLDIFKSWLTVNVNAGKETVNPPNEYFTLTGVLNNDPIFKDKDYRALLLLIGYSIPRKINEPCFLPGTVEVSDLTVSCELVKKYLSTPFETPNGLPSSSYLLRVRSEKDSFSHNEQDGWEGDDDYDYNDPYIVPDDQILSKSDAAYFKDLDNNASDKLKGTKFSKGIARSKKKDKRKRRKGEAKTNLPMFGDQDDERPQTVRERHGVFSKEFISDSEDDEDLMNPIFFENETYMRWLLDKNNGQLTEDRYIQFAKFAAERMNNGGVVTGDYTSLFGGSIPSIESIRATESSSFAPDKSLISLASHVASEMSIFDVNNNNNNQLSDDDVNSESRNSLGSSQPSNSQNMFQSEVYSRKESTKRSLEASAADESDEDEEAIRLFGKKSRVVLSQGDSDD

B1: Scc1 (natural protein, S. cerevisiae (budding yeast), UniProt Q12158 1-566, looked up)
chain: MVTENPQRLTVLRLATNKGPLAQIWLASNMSNIPRGSVIQTHIAESAKEIAKASGCDDESGDNEYITLRTSGELLQGIVRVYSKQATFLLTDIKDTLTKISMLFKTSQKMTSTVNRLNTVTRVHQLMLEDAVTEREVLVTPGLEFLDDTTIPVGLMAQENSMERKVQGAAPWDTSLEVGRRFSPDEDFEHNNLSSMNLDFDIEEGPITSKSWEEGTRQSSRNFDTHENYIQDDDFPLDDAGTIGWDLGITEKNDQNNDDDDNSVEQGRRLGESIMSEEPTDFGFDLDIEKEAPAGNIDTITDAMTESQPKQTGTRRNSKLLNTKSIQIDEETENSESIASSNTYKEERSNNLLTPQPTNFTTKRLWSEITESMSYLPDPILKNFLSYESLKKRKIHNGREGSIEEPELNVSLNLTDDVISNAGTNDNSFNELTDNMSDFVPIDAGLNEAPFPEENIIDAKTRNEQTTIQTEKVRPTPGEVASKAIVQMAKILRKELSEEKEVIFTDVLKSQANTEPENITKREASRGFFDILSLATEGCIGLSQTEAFGNIKIDAKPALFERFINA
notes: Scc1, budding yeast; the Scc1 chain of m1; Stood in the cross-linking sample as a chain of cohesin; source: purified as part of cohesin, as previously described (Minamino et al. 2018)
binding result (Chl1): binds
binding result (Tof1): binds
